T1: human IL-25 expressed with a C-terminal myc-myc-hexahistidine tag (human)
T1 construct: also called hIL-25-MMH; Human IL-25-MMH
T1 chain: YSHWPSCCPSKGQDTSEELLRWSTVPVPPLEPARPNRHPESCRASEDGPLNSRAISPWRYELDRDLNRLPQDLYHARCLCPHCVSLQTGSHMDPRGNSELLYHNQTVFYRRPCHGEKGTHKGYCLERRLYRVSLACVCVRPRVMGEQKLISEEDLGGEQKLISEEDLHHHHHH

T2: mouse IL-25 expressed with a C-terminal myc-myc-hexahistidine tag (mouse)
T2 construct: also called Mouse IL-25-MMH; mIL-25-MMH
T2 chain: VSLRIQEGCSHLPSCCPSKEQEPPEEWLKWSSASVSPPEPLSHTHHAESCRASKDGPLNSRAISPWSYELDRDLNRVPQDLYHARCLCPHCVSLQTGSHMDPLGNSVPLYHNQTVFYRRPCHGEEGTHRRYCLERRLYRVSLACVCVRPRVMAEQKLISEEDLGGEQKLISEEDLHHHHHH

T3: monkey IL-25 expressed with a C-terminal myc-myc-hexahistidine tag (M. fascicularis (cynomolgus monkey))
T3 construct: also called Monkey IL-25-MMH; MfIL-25-MMH
T3 chain: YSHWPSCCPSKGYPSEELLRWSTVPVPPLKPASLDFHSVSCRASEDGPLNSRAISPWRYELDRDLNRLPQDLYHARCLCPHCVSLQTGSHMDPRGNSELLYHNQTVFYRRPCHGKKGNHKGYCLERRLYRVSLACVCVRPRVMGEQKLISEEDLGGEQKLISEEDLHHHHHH

T4: rat IL-25 expressed with a C-terminal myc-myc-hexahistidine tag (rat)
T4 construct: also called Rat IL-25-MMH
T4 chain: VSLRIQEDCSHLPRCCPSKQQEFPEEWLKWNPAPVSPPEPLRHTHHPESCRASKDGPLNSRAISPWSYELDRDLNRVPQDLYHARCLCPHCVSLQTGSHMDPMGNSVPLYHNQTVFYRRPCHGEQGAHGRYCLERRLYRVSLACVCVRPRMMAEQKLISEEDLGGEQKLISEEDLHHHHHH

B1: H4H10863P (antibody, human IgG4, V domains shown)
VH: QVQLVQSGAEVKKPGASVKVSCKASGYTFSSYGISWVRQAPGQGLEWMGWISAYNDNTQYAQKFQGRVTMTTDTSTSTAYMELRSLRSDDTAVYYCARVPLQWFGESFDHWGQGTLVTVSS
VL: DIQMTQSPSSLSASVGDRVTITCRASQDINNYLNWFQQKPGKAPKLLIFSTSSLQSGVPSRFSGSGSGTDFTLTISSLQSEDFATYYCQQTFITPLTFGGGTKVEIK
notes: H4H prefix = human IgG4 Fc
B2: H4H10905P (antibody, human IgG4, V domains shown)
VH: QVQLVQSGAEVKKPGTSVKVSCKASGYTFTNYGISWVRQAPGQGLEWLGWISAYNDNTDYAQKLQARVTMTTDTFTSTAYMDLRSLRSDDTAVYYCARVPITGTTSSFDFWGQGTLVTVSS
VL: DIQMTQSPSSLSASVGDRVTISCRASQTIYSYLNWFQQKPGKAPKLLIYDASSLQSGVPSRFSGSGSGTHFTLTISSLQPEDFATYFCQQTYSTPLTFGGGTKVEIK
notes: H4H prefix = human IgG4 Fc
B3: H4H10900P (antibody, human IgG4, V domains shown)
VH: QVQLQESGPGLVRPSETLSLICTVSGGSINSYYWSWIRQPPGKGLEWIGYIYYSGSTNYNPSLKSRVTISGDTSKNQFSLKLSSVTAADTAVYYCARGVIWNYELREFDYWGQGTLVTVSS
VL: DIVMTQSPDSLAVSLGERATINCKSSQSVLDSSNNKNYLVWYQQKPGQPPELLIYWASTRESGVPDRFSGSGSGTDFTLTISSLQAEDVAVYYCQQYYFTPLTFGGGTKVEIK
notes: H4H prefix = human IgG4 Fc
B4: H4H10897P (antibody, human IgG4, V domains shown)
VH: QVQLQESGPGLVKPSETLSLTCTVSGGSISDYYWSWIRQPPGKGLEWIGHIYYSGSTNHNPSLKSRVAISVDTSKNQFSLRLYSVTAADTAVYYCARDGYSSSSGFYYFGMDVWGQGTTVTVSS
VL: DIQLTQSPSFLSASVGDRVTITCWASQDINSYLAWYQQKPGKAPKLLIFAASTLQGGVPSRFSGSGSGTEFTLTISSLQPEDFATYYCQHLSSFPPTFGQGTRLEIK
notes: H4H prefix = human IgG4 Fc

Biological target: T1, human IL-25 expressed with a C-terminal …
Assay: BLI Octet, hIL-25-MMH captured on anti-Penta-His sensor, 25C
Description: Binding competition between anti-IL-25 monoclonal antibodies was determined using a real time, label-free bio-layer interferometry assay on an Octet QK384 biosensor (Pall ForteBio Corp.).
The biosensors were washed in HBST kinetics buffer in between every step of the experiment. The real-time binding response was monitored during the course of the experiment and the binding response at the end of every step was recorded.

50 ug/mL mAb-1 Binding (nm)	Binder
1.13 nm	B1
1.59 nm	B2
0.68 nm	B3
1.12 nm	B4

Biological target: T2, mouse IL-25 expressed with a C-terminal …
Assay: SPR Biacore, antibody captured, 25C;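 for 100 nM Rat IL-25-MMH Bound (RU): purified anti-IL-25 antibodies were tested by real-time surface plasmon resonance on a Biacore 4000, with rate constants obtained from sensorgram fits to a 1:1 binding model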

100 nM Mouse IL-25-MMH Bound (RU)	Kd	koff	kon	t½	binding result	Binder
22 RU	2.67 nM	0.000149 s⁻¹	55700 M⁻¹ s⁻¹	1.3 h		B1
43 RU	1.17 nM	0.000145 s⁻¹	124000 M⁻¹ s⁻¹	1.33 h		B2
0 RU					no binding (tested: 100 nM)	B3
20 RU	7.05 nM	0.00104 s⁻¹	148000 M⁻¹ s⁻¹	0.183 h		B4

Biological target: T1, human IL-25 expressed with a C-terminal …
Assay: competition ELISA, 2 nM hIL-25-MMH binding to coated hIL-17RB-hFc; (*) below theoretical bottom of the assay
Description: (§1) Data analysis was performed using a sigmoidal dose-response model within Prism™ software (GraphPad). […] The absorbance values of the wells containing the highest concentration for each antibody were used to determine the percent maximum blockade.

IC50	Binder
0.92 nM	B1
0.53 nM	B2
0.2 nM	B3
0.32 nM	B4

Biological target: T3, monkey IL-25 expressed with a …
Assay: SPR Biacore, antibody captured, 37C;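 for 100 nM Monkey IL-25-MMH Bound (RU): biacore 4000 surface plasmon resonance biosensor measuring binding of IL-25-MMH to purified anti-IL-25 antibodies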;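 for 100 nM Mouse IL-25-MMH Bound (RU): Real-time sensorgrams of IL-25-MMH binding to purified anti-IL-25 antibodies, rate constants obtained by fitting a 1:1 binding model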
Description: (§2) Equilibrium dissociation constants (KD values) for IL-25 binding to purified anti-IL-25 antibodies were determined using a real-time surface plasmon resonance biosensor assay on a Biacore 4000 instrument (GE Healthcare). […] All the IL-25 reagents were expressed with a C-terminal myc-myc-hexahistidine tag (referred to herein as “IL-25-MMH”). […] Kinetic association (kₐ) and dissociation (kd) rate constants were determined by fitting the real-time sensorgrams to a 1:1 binding model using Scrubber 2.0c curve fitting software.

100 nM Monkey IL-25-MMH Bound (RU)	Kd	koff	kon	t½	Binder
51 RU	0.0685 nM	8.07e-05 s⁻¹	1.18e+06 M⁻¹ s⁻¹	2.38 h	B1
59 RU	0.135 nM	9.01e-05 s⁻¹	668000 M⁻¹ s⁻¹	2.13 h	B2
50 RU	0.0244 nM	7.49e-05 s⁻¹	3.07e+06 M⁻¹ s⁻¹	2.57 h	B3
49 RU	0.189 nM	0.000231 s⁻¹	1.22e+06 M⁻¹ s⁻¹	0.833 h	B4

Biological target: T1, human IL-25 expressed with a C-terminal …
Assay: competition ELISA, 2 nM hIL-25-MMH binding to coated hIL-17RB-hFc
Description: as §1

% Maximum blocking of 200 nM antibody	Binder
87%	B1
86%	B2
90%	B3
94%	B4

Biological target: T4, rat IL-25 expressed with a C-terminal …
Assay: SPR Biacore, antibody captured, 37C;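 for 100 nM Monkey IL-25-MMH Bound (RU): biacore 4000 surface plasmon resonance biosensor measuring binding of IL-25-MMH to purified anti-IL-25 antibodies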;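 for 100 nM Mouse IL-25-MMH Bound (RU): Real-time sensorgrams of IL-25-MMH binding to purified anti-IL-25 antibodies, rate constants obtained by fitting a 1:1 binding model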

100 nM Rat IL-25-MMH Bound (RU)	Kd	koff	kon	t½	Binder
41 RU	0.72 nM	0.000341 s⁻¹	474000 M⁻¹ s⁻¹	0.567 h	B1
49 RU	0.377 nM	0.000181 s⁻¹	481000 M⁻¹ s⁻¹	1.07 h	B2
2 RU					B3
22 RU	24.6 nM	0.00601 s⁻¹	245000 M⁻¹ s⁻¹	0.0317 h	B4

Biological target: T2, mouse IL-25 expressed with a C-terminal …
Assay: SPR Biacore, antibody captured, 37C;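 for 100 nM Monkey IL-25-MMH Bound (RU): biacore 4000 surface plasmon resonance biosensor measuring binding of IL-25-MMH to purified anti-IL-25 antibodies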;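 for 100 nM Mouse IL-25-MMH Bound (RU): Real-time sensorgrams of IL-25-MMH binding to purified anti-IL-25 antibodies, rate constants obtained by fitting a 1:1 binding model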

100 nM Mouse IL-25-MMH Bound (RU)	Kd	koff	kon	t½	Binder
37 RU	1.14 nM	0.000153 s⁻¹	134000 M⁻¹ s⁻¹	1.27 h	B1
47 RU	0.441 nM	0.000178 s⁻¹	403000 M⁻¹ s⁻¹	1.08 h	B2
2 RU					B3
17 RU	36.2 nM	0.00641 s⁻¹	177000 M⁻¹ s⁻¹	0.03 h	B4

Biological target: T4, rat IL-25 expressed with a C-terminal …
Assay: SPR Biacore, antibody captured, 25C;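 for 100 nM Rat IL-25-MMH Bound (RU): purified anti-IL-25 antibodies were tested by real-time surface plasmon resonance on a Biacore 4000, with rate constants obtained from sensorgram fits to a 1:1 binding model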
Description: as §2

100 nM Rat IL-25-MMH Bound (RU)	Kd	koff	kon	t½	binding result	Binder
34 RU	1.07 nM	0.000164 s⁻¹	153000 M⁻¹ s⁻¹	1.17 h		B1
45 RU	0.81 nM	0.000135 s⁻¹	167000 M⁻¹ s⁻¹	1.42 h		B2
0 RU					no binding (tested: 100 nM)	B3
23 RU	2.42 nM	0.000807 s⁻¹	333000 M⁻¹ s⁻¹	0.233 h		B4

Biological target: T2, mouse IL-25 expressed with a C-terminal …
Assay: cell-based or functional assay

IC50, luciferase reporter cells, 10 pM mIL-25-MMH	Binder
4.3e-09 M	B1
6.8e-10 M	B2
1.5e-08 M	B4

Biological target: T1, human IL-25 expressed with a C-terminal …
Assay: cell-based or functional assay

IC50, luciferase reporter cells, 5 pM hIL-25-MMH	Binder
6.9e-10 M	B1
5.1e-10 M	B2
3.1e-11 M	B3
4.6e-10 M	B4

Biological target: T3, monkey IL-25 expressed with a …
Assay: cell-based or functional assay

IC50, luciferase reporter cells, 12 pM MfIL-25-MMH	Binder
3.5e-10 M	B1
2.1e-10 M	B2
2.2e-11 M	B3
4e-10 M	B4

Biological target: T1, human IL-25 expressed with a C-terminal …
Assay: cell-based or functional assay
Remark: another data set of the same source

IC50 values of antibodies for blocking IL-5 release from Donor #727058-059	IC50 values of antibodies for blocking IL-5 release from Donor #727060	Binder
0.0392 nM	0.578 nM	B3

From patent US20160083466A1 (Regeneron, published 2016)
